Here are results for one protein from article PMC6863704 (Protein Science : A Publication of the Protein Society, 2019).

The series deals with the molecule itself. Kind of series: NMR.

B1: p50 dimerization domain of NFκB1 (residues 241–351), long construct with non-native N-terminal extension (domain or fragment, mouse)
chain: VGTGSNDDDDKAPNASNLKIVRMDRTAGCVTGGEEIYLLCDKVQKDDIQIRFYEEEENGGVWEGFGDFSPTDVHRQFAIVFKTPKYKDVNITKPASVFVQLRRKSDLETSEPKPFLYYPEI
By stoichiometry N is commonly meant the number of molecules, sites or subunits per partner or assembly. With B1, the “stoichiometry N” value was 2.
